Assay results reported in patent US20230250154A1.
Values belong to the binder of their own block, whether it stands above or below them.

Molecular target: Protease Mixtures
Assay: cell-based or functional assay

B1: Variant A2M, bait region SEQ ID NO 133, P01023 24-1474 (protein)
chain: SVSGKPQYMVLVPSLLHTETTEKGCVLLSYLNETVTVSASLESVRGNRSLFTDLEAENDVLHCVAFAVPKSSSNEEVMFLTVQVKGPTQEFKKRTTVMVKNEDSLVFVQTDKSIYKPGQTVKFRVVSMDENFHPLNELIPLVYIQDPKGNRIAQWQSFQLEGGLKQFSFPLSSEPFQGSYKVVVQKKSGGRTEHPFTVEEFVLPKFEVQVTVPKIITILEEEMNVSVCGLYTYGKPVPGHVTVSICRKYSDASDCHGEDSQAFCEKFSGQLNSHGCFYQQVKTKVFQLKRKEYEMKLHTEAQIQEEGTVVELTGRQSSEITRTITKLSFVKVDSHFRQGIPFFGQVRLVDGKGVPIPNKVIFIRGNEANYYSNATTDEHGLVQFSINTTNVMGTSLTVRVNYKDRSPCYGYQWVSEEHEEAHHTAYLVFSPSKSFVHLEPMSHELPCGHTQTVQAHYILNGGTLLGLKKLSFYYLIMAKGGIVRTGTHGLLVKQEDMKGHFSISIPVKSDIAPVARLLIYAVLPTGDVIGDSAKYDVENCLANKVDLSFSPSQSLPASHAHLRVTAAPQSVCALRAVDQSVLLMKPDAELSASSVYNLLPEKDLTGFPGPLNDQDDEDCINRHNVYINGITYTPVSSTNEKDMYSFLEDMGLKAFTNSKIRKPKMCPQLEQYEMHGPIPENFFGVEGEGEGESELEGRGSSEDLVVQIVEEPHTKLRKYFPETWIWDLVVVNSAGVAEVGVTVPDTITEWKAGAFCLSEDAGLGISSTASLRAFQPFFVELTMPYSVIRGEAFTLKATVLNYLPKCIRVSVQLEASPAFLAVPVEKEQAPHCICANGRQTVSWAVTPKSLGNVNFTVSAEALESQELCGTEVPSVPEHGRKDTVIKPLLVEPEGLEKETTFNSLLCPSGGEVSEELSLKLPPNVVEESARASVSVLGDILGSAMQNTQNLLQMPYGCGEQNMVLFAPNIYVLDYLNETQQLTPEIKSKAIGYLNTGYQRQLNYKHYDGSYSTFGERYGRNQGNTWLTAFVLKTFAQARAYIFIDEAHITQALIWLSQRQKDNGCFRSSGSLLNNAIKGGVEDEVTLSAYITIALLEIPLTVTHPVVRNALFCLESAWKTAQEGDHGSHVYTKALLAYAFALAGNQDKRKEVLKSLNEEAVKKDNSVHWERPQKPKAPVGHFYEPQAPSAEVEMTSYVLLAYLTAQPAPTSEDLTSATNIVKWITKQQNAQGGFSSTQDTVVALHALSKYGAATFTRTGKAAQVTIQSSGTFSSKFQVDNNNRLLLQQVSLPELPGEYSMKVTGEGCVYLQTSLKYNILPEKEEFPFALGVQTLPQTCDEPKAHTSFQISLSVSYTGSRSASNMAIVDVKMVSGFIPLKPTVKMLERSNHVSRTEVSSNHVLIYLDKVSNQTLSLFFTVLQDVPVRDLKPAIVKVYDYYETDEFAIAEYNAPCSKDLGNADYKDDDDKGASHHHHHH
Protease Inhibition (% of WT); Protease Mixtures, IGD Substrate: 75 % of WT

B2: Variant A2M, bait region SEQ ID NO 134, P01023 24-1474 (protein)
chain: SVSGKPQYMVLVPSLLHTETTEKGCVLLSYLNETVTVSASLESVRGNRSLFTDLEAENDVLHCVAFAVPKSSSNEEVMFLTVQVKGPTQEFKKRTTVMVKNEDSLVFVQTDKSIYKPGQTVKFRVVSMDENFHPLNELIPLVYIQDPKGNRIAQWQSFQLEGGLKQFSFPLSSEPFQGSYKVVVQKKSGGRTEHPFTVEEFVLPKFEVQVTVPKIITILEEEMNVSVCGLYTYGKPVPGHVTVSICRKYSDASDCHGEDSQAFCEKFSGQLNSHGCFYQQVKTKVFQLKRKEYEMKLHTEAQIQEEGTVVELTGRQSSEITRTITKLSFVKVDSHFRQGIPFFGQVRLVDGKGVPIPNKVIFIRGNEANYYSNATTDEHGLVQFSINTTNVMGTSLTVRVNYKDRSPCYGYQWVSEEHEEAHHTAYLVFSPSKSFVHLEPMSHELPCGHTQTVQAHYILNGGTLLGLKKLSFYYLIMAKGGIVRTGTHGLLVKQEDMKGHFSISIPVKSDIAPVARLLIYAVLPTGDVIGDSAKYDVENCLANKVDLSFSPSQSLPASHAHLRVTAAPQSVCALRAVDQSVLLMKPDAELSASSVYNLLPEKDLTGFPGPLNDQDDEDCINRHNVYINGITYTPVSSTNEKDMYSFLEDMGLKAFTNSKIRKPKMCPQLEQYEMHGPSELEGRGSIPENFFGVKEEEGLGSSEDLVVQIVEEPHTKLRKYFPETWIWDLVVVNSAGVAEVGVTVPDTITEWKAGAFCLSEDAGLGISSTASLRAFQPFFVELTMPYSVIRGEAFTLKATVLNYLPKCIRVSVQLEASPAFLAVPVEKEQAPHCICANGRQTVSWAVTPKSLGNVNFTVSAEALESQELCGTEVPSVPEHGRKDTVIKPLLVEPEGLEKETTFNSLLCPSGGEVSEELSLKLPPNVVEESARASVSVLGDILGSAMQNTQNLLQMPYGCGEQNMVLFAPNIYVLDYLNETQQLTPEIKSKAIGYLNTGYQRQLNYKHYDGSYSTFGERYGRNQGNTWLTAFVLKTFAQARAYIFIDEAHITQALIWLSQRQKDNGCFRSSGSLLNNAIKGGVEDEVTLSAYITIALLEIPLTVTHPVVRNALFCLESAWKTAQEGDHGSHVYTKALLAYAFALAGNQDKRKEVLKSLNEEAVKKDNSVHWERPQKPKAPVGHFYEPQAPSAEVEMTSYVLLAYLTAQPAPTSEDLTSATNIVKWITKQQNAQGGFSSTQDTVVALHALSKYGAATFTRTGKAAQVTIQSSGTFSSKFQVDNNNRLLLQQVSLPELPGEYSMKVTGEGCVYLQTSLKYNILPEKEEFPFALGVQTLPQTCDEPKAHTSFQISLSVSYTGSRSASNMAIVDVKMVSGFIPLKPTVKMLERSNHVSRTEVSSNHVLIYLDKVSNQTLSLFFTVLQDVPVRDLKPAIVKVYDYYETDEFAIAEYNAPCSKDLGNADYKDDDDKGASHHHHHH
Protease Inhibition (% of WT); Protease Mixtures, IGD Substrate: 220 % of WT

Continued, values first:

Protease Inhibition (% of WT); Protease Mixtures, Collagen Substrate: 170 % of WT
Protease Inhibition (% of WT); Protease Mixtures, IGD Substrate: 215 % of WT
B3: Variant A2M, bait region SEQ ID NO 136, P01023 24-1474 (protein)
chain: SVSGKPQYMVLVPSLLHTETTEKGCVLLSYLNETVTVSASLESVRGNRSLFTDLEAENDVLHCVAFAVPKSSSNEEVMFLTVQVKGPTQEFKKRTTVMVKNEDSLVFVQTDKSIYKPGQTVKFRVVSMDENFHPLNELIPLVYIQDPKGNRIAQWQSFQLEGGLKQFSFPLSSEPFQGSYKVVVQKKSGGRTEHPFTVEEFVLPKFEVQVTVPKIITILEEEMNVSVCGLYTYGKPVPGHVTVSICRKYSDASDCHGEDSQAFCEKFSGQLNSHGCFYQQVKTKVFQLKRKEYEMKLHTEAQIQEEGTVVELTGRQSSEITRTITKLSFVKVDSHFRQGIPFFGQVRLVDGKGVPIPNKVIFIRGNEANYYSNATTDEHGLVQFSINTTNVMGTSLTVRVNYKDRSPCYGYQWVSEEHEEAHHTAYLVFSPSKSFVHLEPMSHELPCGHTQTVQAHYILNGGTLLGLKKLSFYYLIMAKGGIVRTGTHGLLVKQEDMKGHFSISIPVKSDIAPVARLLIYAVLPTGDVIGDSAKYDVENCLANKVDLSFSPSQSLPASHAHLRVTAAPQSVCALRAVDQSVLLMKPDAELSASSVYNLLPEKDLTGFPGPLNDQDDEDCINRHNVYINGITYTPVSSTNEKDMYSFLEDMGLKAFTNSKIRKPKMCPQLEQYEMHGPKEEEGLGSIPENFFGVSELEGRGSEGEGEGEGVEEPHTKLRKYFPETWIWDLVVVNSAGVAEVGVTVPDTITEWKAGAFCLSEDAGLGISSTASLRAFQPFFVELTMPYSVIRGEAFTLKATVLNYLPKCIRVSVQLEASPAFLAVPVEKEQAPHCICANGRQTVSWAVTPKSLGNVNFTVSAEALESQELCGTEVPSVPEHGRKDTVIKPLLVEPEGLEKETTFNSLLCPSGGEVSEELSLKLPPNVVEESARASVSVLGDILGSAMQNTQNLLQMPYGCGEQNMVLFAPNIYVLDYLNETQQLTPEIKSKAIGYLNTGYQRQLNYKHYDGSYSTFGERYGRNQGNTWLTAFVLKTFAQARAYIFIDEAHITQALIWLSQRQKDNGCFRSSGSLLNNAIKGGVEDEVTLSAYITIALLEIPLTVTHPVVRNALFCLESAWKTAQEGDHGSHVYTKALLAYAFALAGNQDKRKEVLKSLNEEAVKKDNSVHWERPQKPKAPVGHFYEPQAPSAEVEMTSYVLLAYLTAQPAPTSEDLTSATNIVKWITKQQNAQGGFSSTQDTVVALHALSKYGAATFTRTGKAAQVTIQSSGTFSSKFQVDNNNRLLLQQVSLPELPGEYSMKVTGEGCVYLQTSLKYNILPEKEEFPFALGVQTLPQTCDEPKAHTSFQISLSVSYTGSRSASNMAIVDVKMVSGFIPLKPTVKMLERSNHVSRTEVSSNHVLIYLDKVSNQTLSLFFTVLQDVPVRDLKPAIVKVYDYYETDEFAIAEYNAPCSKDLGNADYKDDDDKGASHHHHHH

Protease Inhibition (% of WT); Protease Mixtures, IGD Substrate: 140 % of WT
B4: Variant A2M, bait region SEQ ID NO 135, P01023 24-1474 (protein)
chain: SVSGKPQYMVLVPSLLHTETTEKGCVLLSYLNETVTVSASLESVRGNRSLFTDLEAENDVLHCVAFAVPKSSSNEEVMFLTVQVKGPTQEFKKRTTVMVKNEDSLVFVQTDKSIYKPGQTVKFRVVSMDENFHPLNELIPLVYIQDPKGNRIAQWQSFQLEGGLKQFSFPLSSEPFQGSYKVVVQKKSGGRTEHPFTVEEFVLPKFEVQVTVPKIITILEEEMNVSVCGLYTYGKPVPGHVTVSICRKYSDASDCHGEDSQAFCEKFSGQLNSHGCFYQQVKTKVFQLKRKEYEMKLHTEAQIQEEGTVVELTGRQSSEITRTITKLSFVKVDSHFRQGIPFFGQVRLVDGKGVPIPNKVIFIRGNEANYYSNATTDEHGLVQFSINTTNVMGTSLTVRVNYKDRSPCYGYQWVSEEHEEAHHTAYLVFSPSKSFVHLEPMSHELPCGHTQTVQAHYILNGGTLLGLKKLSFYYLIMAKGGIVRTGTHGLLVKQEDMKGHFSISIPVKSDIAPVARLLIYAVLPTGDVIGDSAKYDVENCLANKVDLSFSPSQSLPASHAHLRVTAAPQSVCALRAVDQSVLLMKPDAELSASSVYNLLPEKDLTGFPGPLNDQDDEDCINRHNVYINGITYTPVSSTNEKDMYSFLEDMGLKAFTNSKIRKPKMCPQLEQYEMHGPIPENFFGVSELEGRGSSEDLVVQIKEEEGLGSVEEPHTKLRKYFPETWIWDLVVVNSAGVAEVGVTVPDTITEWKAGAFCLSEDAGLGISSTASLRAFQPFFVELTMPYSVIRGEAFTLKATVLNYLPKCIRVSVQLEASPAFLAVPVEKEQAPHCICANGRQTVSWAVTPKSLGNVNFTVSAEALESQELCGTEVPSVPEHGRKDTVIKPLLVEPEGLEKETTFNSLLCPSGGEVSEELSLKLPPNVVEESARASVSVLGDILGSAMQNTQNLLQMPYGCGEQNMVLFAPNIYVLDYLNETQQLTPEIKSKAIGYLNTGYQRQLNYKHYDGSYSTFGERYGRNQGNTWLTAFVLKTFAQARAYIFIDEAHITQALIWLSQRQKDNGCFRSSGSLLNNAIKGGVEDEVTLSAYITIALLEIPLTVTHPVVRNALFCLESAWKTAQEGDHGSHVYTKALLAYAFALAGNQDKRKEVLKSLNEEAVKKDNSVHWERPQKPKAPVGHFYEPQAPSAEVEMTSYVLLAYLTAQPAPTSEDLTSATNIVKWITKQQNAQGGFSSTQDTVVALHALSKYGAATFTRTGKAAQVTIQSSGTFSSKFQVDNNNRLLLQQVSLPELPGEYSMKVTGEGCVYLQTSLKYNILPEKEEFPFALGVQTLPQTCDEPKAHTSFQISLSVSYTGSRSASNMAIVDVKMVSGFIPLKPTVKMLERSNHVSRTEVSSNHVLIYLDKVSNQTLSLFFTVLQDVPVRDLKPAIVKVYDYYETDEFAIAEYNAPCSKDLGNADYKDDDDKGASHHHHHH
